# Data published in US20170044257A1 (BRIGHAM AND WOMEN S HOSPITAL, published 2017).
# Target: T1, human alpha-fetoprotein (hAFP) (human, UniProt P02771 19-609)
# T1 construct: No signal peptide cleavage site is stated; also called human AFP
# T1 sequence: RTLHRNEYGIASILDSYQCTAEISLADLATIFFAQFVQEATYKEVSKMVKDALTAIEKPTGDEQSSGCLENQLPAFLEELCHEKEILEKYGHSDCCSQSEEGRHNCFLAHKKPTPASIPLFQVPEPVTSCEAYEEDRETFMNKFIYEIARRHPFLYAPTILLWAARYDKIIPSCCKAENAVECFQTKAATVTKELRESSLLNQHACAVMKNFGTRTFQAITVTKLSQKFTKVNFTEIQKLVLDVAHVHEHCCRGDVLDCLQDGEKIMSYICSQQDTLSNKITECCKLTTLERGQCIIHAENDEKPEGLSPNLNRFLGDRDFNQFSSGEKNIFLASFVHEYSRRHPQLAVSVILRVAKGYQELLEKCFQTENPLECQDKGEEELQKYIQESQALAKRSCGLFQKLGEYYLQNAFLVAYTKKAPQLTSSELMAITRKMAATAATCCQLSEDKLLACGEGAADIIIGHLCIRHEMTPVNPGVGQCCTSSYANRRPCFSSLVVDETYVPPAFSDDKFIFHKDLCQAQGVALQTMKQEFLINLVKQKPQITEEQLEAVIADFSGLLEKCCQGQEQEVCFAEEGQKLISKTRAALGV
# Assay: SPR (Biacore 3000), mFcRn/mβ2m on chip, hAFP injected, neutral pH
# Description: Surface plasmon resonance was conducted using a Biacore 3000 instrument (GE Healthcare) with CMS sensor chips coupled with recombinant human FcRn & hβ₂m heterodimer protein or mouse FcRn & mβ₂m (1000 RU). The coupling was performed by injecting 25 μg/mL of the protein diluted in 10 mM sodium acetate pH 5.0 using the amine coupling kit (GE Healthcare). Phosphate buffer (67 mM phosphate buffer, 0.15 M NaCl, 0.005% Tween 20) at pH 6.0 or pH 7.4 was used as running buffer. Glycine pH 2.5 was used for regeneration of the flow cells. hAFP (SinoBiological) was injected at 25° C. with a flow rate of 25 μl/min, and data were analyzed using the BIAevaluation 4.1 software where the sensorgrams were zero adjusted and reference cell values subtracted.
binder,measurement,value
"recombinant mouse FcRn & mβ2m (receptor, Coupled to the Biacore chip for SPR; also called mFcRn) SETRPPLMYHLTAVSNPSTGLPSFWATGWLGPQQYLTYNSLRQEADPCGAWMWENQVSWYWEKETTDLKSKEQLFLEALKTLEKILNGTYTLQGLLGCELASDNSSVPTAVFALNGEEFMKFNPRIGNWTGEWPETEIVANLWMKQPDAARKESEFLLNSCPERLLGHLERGRRNLEWKEPPSMRLKARPGNSGSSVLTCAAFSFYPPELKFRFLRNGLASGSGNCSTGPNGDGSFHAWSLLEVKRGDEHHYQCQVEHEGLAQPLTVDLDSSARSS b2m: IQKTPQIQVYSRHPPENGKPNILNCYVTQFHPPHIEIQMLKNGKKIPKVEMSDMSFSKDWSFYILAHTEFTPTETDTYACRVKHASMAEPKTVYWDRDM",binding result,binds
